These results are taken from the domain aggregation screens of Martell et al. (2025).

This data set in a line: soluble fraction after stress (log2 fold change); higher = more stays soluble; pooled small domains, quantitative proteomics. The conditions noted are these: stress: 75 degC.
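Further: 20 min heating vs room temperature control held 20 min.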

Regarding “HMDAAEVEATARAMLRRSALNLLAQREQTAFELKQKLSRRFPEQAALLDEVIERLQEQGLQDDTR”, the “soluble fraction (log2)” value is -0.0318.
For “HMDAEEISILLEKAVLQLPEKQKMIFQLKYFEDLSYKDIQIITGGSIGGLKANYHHAVTKIEKLLS” the value was 0.123; for “HMDAEETLGARLRRLRQARGLSLAGLAQAAGLSKPSIWAWENGTTAPRRTSLLALARALDVPEQQLTGV”, -0.715.
Consider “HMDAEKHIVTPEAGLRLDRALTDALPNLSRSRVKQLINEGLVTTENKTITAPSYRVKYGDSFEISIPPPT”, for which the “soluble fraction (log2)” value was -0.16.
With “HMDAIIVPSVLKMKPFEAEEKLSALGLRMKINDTVYIDNMKPGVIVEQSPTAEEDVKTDRVIYVIVNA” the figure was -0.327; with “HMDAKQLQSLKNNNEQLAGFIVRLTNFYEGLSPDIDAELSKLRSHLSGKVDYTLATVSINKINQLFMLEP”, -2.97; with “HMDALIWYVSRGQQKFGPFNYFGVLKALQDKSVFEFDYVWKEGTENWVRLAEHELFSQEKVRELLA”, -0.554.
For “HMDAMLGEALRLIRVYHDLKQKQAAERLEVSTSYLSEIERGLKTPTLDIIQRYATVFDMPVSSIMFFSENL” the value was -3.1; for “HMDAMLSEQLREKRGELLIEVDAIAGNALRWATLSAEQQDAWAVYRQALLDVPQQAGFPNDVVWPINPN”, -0.42.
In the case of “HMDAPKPDIGMSTDQIRSSLGQPGSQTRLETGGGRIYELWIYLYPDGKELQIYFDNAKVVKMEALS”, the “soluble fraction (log2)” value was -1.19.
With “HMDAPLIIAETRVDVPDATVSDAVMMLDLRNTNALLFKNSGSGVLNMVYRRGDGTIGWGEPQ” the figure was -0.011; with “HMDASKVKIEDLGLSTRTENALVAASIRTAGGLARKSEMDLLSTDGLGEKGITEIKKALSDLGLELK”, 0.4.
Regarding “HMDAVSTMIENLRVKTGKSLADWVGLAKGSGADKHGAMVGWLKSEHGLTHGYANLIAHETFRSAA”, the “soluble fraction (log2)” value was -0.129.
For the sequence “HMDAVTPVLSRIRDARFKRMVLPGDEIEISVTLIDTIGKFFNLSGQIRNKDKISLTVNFALALV”, the “soluble fraction (log2)” value stood at 0.195.
With “HMDDADPYEILGVERDAEDAEIKRAYHDLIRENHPDRLMAEGLPQEMIDVANEKVAFINDAYDRIEKLRGM” the figure was -0.193; with “HMDDENKIEVMINEEKVQLTGKDKYVFVDIFNYIDMDLTRIHGNLVLKLNGENASHNSLLKSGDKIEARWE”, -0.746; with “HMDDERDRLVQQAMEGLSPALREILLLAYFQRMPYNQIAESLRIPLGTVKSRLHAAVAAFAKRWQELNRS”, -0.77.
For “HMDDFNLSPREKDVLGHLVKGNSYKMIADELQIGYDTVHSHIKKIYKKLHVNSMSEAVAKALKNKL” the value was 0.332; for “HMDDGARQLVDQLNRLIANPAVSARIIHGYLILEGRVESEWEKTRTLLLAQVAGLPVIDLITVS”, -2.35; for “HMDDGLTRLTPRENEVLELMAQGRSNTAIAERLVLSYGAVEKNVSSIFTKLDLPLDAGDHRRVLAVLRRLN”, -0.668.
With “HMDDGNHTEYIVLEKAKFYDEAGEYEEGRDLVLSFDKYQDNWKLVYTLGVFNKKLNNLEEARKYYKQALE” the figure was -0.0263; with “HMDDHKQHLIDFYHSRKRMPTYTEMMALFGYKSKNAVARLVEKMIDAGIVTKDKLGKLLPTTLFDSVPL”, -0.00288; with “HMDDHLRLSDNERISAMSALATHFTEGRLDTSEFDERTLAASQAKSRGDLRPLFDDLPGQLPAALSP”, 0.0298.
Consider “HMDDKLKKLEEVFEMQEGTLTPDMRLDELEEWDSMTRLSLIVMMEDDYGKKVKRSEVMNYTTVQDIVDSME”, for which the “soluble fraction (log2)” value is -0.0532.
With “HMDDLSPEENKVIGAQVREELARRRLSRQHLADKAKISLSTLEKALTGTRPFTLASVVRIEEALQLQLRK” the figure was -1.35; with “HMDDPEISQEQRQQLFRTAKEHFGASGNDVLKEILADHGRDSTVKMPVSVFAEIMGDLLKRALD”, 0.612; with “HMDDPQAELLARAVRRVALAAAERTRRNEYGGVYLGLFRQFGISSYRRTPPARLHEALEWLERWRGDLM”, -0.134.
With “HMDDTVILPIQINGKRRAEISVPKAMPASEVEKLALANEDVLRFLAGQPIKKLIVVPGRIINVV” the figure was 0.0584; with “HMDDVGERIRKIREEKNLSLDEISKMTGFDVEFLAKIENKERQPQLGTVIKLSKALDSAFGRL”, 0.162; with “HMDDVGYLRKRLQQALAQLSDDLRNTYTLFQIGKQSIKQIAAETGASESLVKVRIHRAKQKLQELLADLQ”, -1.47.
For “HMDEDLQEALRKLNPIQANERKLLLKMLEQHRWNVSSVAKAFDVSRNTLYRRLHKLHIPLSNPSE” the value was -1.33; for “HMDEEAIELTQEVMKLPPKQREVILLYYYHGLTGKEIAKALGISGAAVSKRLKQAKNQLHFALK”, -0.282.
Take “HMDEEVLVVQEGGERLDVFVAANAEGITRSFVQNLIKKGDVTVDGAPRKANYRLRSGQVVRFSLPEP”: the “soluble fraction (log2)” value was -0.204.
For “HMDEFEEGVITYFNSEKGFGFIRESKTKQSVFVHSKQLSSPVQLNDKVKFIVNKGLKGLEATEVSVI” the value was -0.818; for “HMDEFQLTPREQEILGLLVKGYTYKRIASELNLSYATVNRHVSNVYVKLRVHSVNEAVALAVRKGL”, -1.39; for “HMDEKLAHKLVSDFRQAAASLERFPFRNPVLRSEVFTVEKYRKLVFDKYHILLYQVKDQVVYVEYVIDGRQ”, -0.94.
For “HMDEKVTIPSVSGLLLSEAKTKLVDAGLTVETVYDDESKEAKDTVLSQSPLQYGKVDKGTVVTLTVSSGKG” the value was 0.332.
With “HMDELPKDILRSFGLPDKPWAMELLRNLRRDGFALDGETARAYAEMAAMKPPRTDARQWMTAADVAYRRG”, the “soluble fraction (log2)” value is -0.343.
As for “HMDEMPVEFVKISIKAGHPWENRKIKDLASLPDLLLVLILRGEERIIPNGNTVVLAGDKIVLSALSPE”, the “soluble fraction (log2)” value was -2.74.
In the case of “HMDENILKTRIEDLDLSVRTIKALTGASIRTVSGLARKKESDLLEISGLGDKGIQEIKRALGSLGITL”, the “soluble fraction (log2)” value is -0.498.
With “HMDENTEQESQTVVVPDVTGKSLSEAASILREAGLDYLAEQTGTVVTKQMPLPDAEVLINTTVLLYTDSE” the figure was 0.143.
For “HMDEPSITYGKVKVQTSLNVRQGPGTQYARIGSLGPNVRIQILGQEGQWYKIKYGNLQGYVHSDYVELEK” the value was -0.026; for “HMDEQKNREIALIENIQREDLNPYEKALGIRNLMDKYGLTQEEVSKRIGKSRSAVSNTVRILNLAPDVL”, 0.125; for “HMDEQLAWLYRKINAFSEIDKALILLYLEDKKYDEIAETLGISSVNARVKMNRIKKRLKEMINDR”, -3.14.
With “HMDEQVETLKNLISELPKEQLEVLVMRHYEDLSFKEISEKTGVSINTALGRMRYALINIRKLMKENN” the figure was -0.145; with “HMDESLIEEAKAMILQMKIEGSVRVRSNGLLEFRNPLFGSVYGRSVEELQEKLNKKVREQKSRI”, -0.443.
As for “HMDEVPMPPEYQYLRVGSRVHHATFGWGKVTRLSQPWPQTRAEVFFENIGPKKLVLAHAHLTMD”, the “soluble fraction (log2)” value was -3.26.
Turning to “HMDEYTAVDSRLDLELAMKRLKPEEAEVLRLVFDYGLPQRAIAERLGVSQMSVSRMQRRAIGKLKRWLSDN”, the “soluble fraction (log2)” value was -1.43.
As to “HMDFKKKIIESWADIAETLRGLTVDSNISDWTTKQKNAYETLADKAELAGLSIADLNSILVELGYM”, the “soluble fraction (log2)” value was -0.119.
“HMDFNDPTMEKSLVELPAMSNSTLRDLSENNIKKLEELAEMSVGELMDIASKISESDASALIMEARKPWF”: the “soluble fraction (log2)” value was -0.312.
For “HMDFRVGVWVELVQQRRSVRTQLTWVSPQHTLFLFTAKDGSTQSMTLRMRDKLLAEGNLRIVAPPSR” the value was -2.37; for “HMDFSENEPVTVRVLSILKNNTIRIAVKGAVLQAQTALSQDIREGAFLLMRVHITDNTVVLTPY”, 0.112; for “HMDFSNVNFSQVSDSELDLLMRRASAQGYTQFDLLKIARAQGLTQAEIEKLDKRFKSAETVAYVAENA”, 0.0531.
As to “HMDFTHFTLKQDGKFAGSSNLLHQAVIAAARLAAETGKPVTVMAHVRGGGTRKAVFNPDGTNDKIWN”, the “soluble fraction (log2)” value was -1.05.
For “HMDGAPVTVIKNGEVDVATTMRVGLSASELMFKLRAAGVDEVQIVHRAVLEQNGQLTIIKYGEE” the value was -2.03; for “HMDGASVQRITELTATLNRYRHEYYNLAKPSVSDAVYDRLFDELAALEQKTGIVLSNSPTQTV”, -0.326; for “HMDGFVFVMPIKETRMFSVNDERPLVGIVKYSNGEFEKEQLIGFRPNSEYEFIIEGQRLYRVPVNSITIK”, -1.08.
For “HMDGIRLYPGLMIEHKNFGRGQVVSVNRERGTFTAFFGKNGTRTLTIQILKTDTVRPLASQKAGK” the value was -0.594; for “HMDGKPSLIISNGQINYKEMVKLRYSLEDLLFQLRQNSIKSIEEVEYAFLESNGKLSIFPYNFL”, -2.53.
For “HMDGLGLGAVILAQRKRQGWTQEDLAARIGVSKGAVSKWETGQSYPDLPLVPRLAALFHITVDELLDYR” the value was -2.35.
For “HMDGLIRLNKLLATLGVESRRHAEEMIIAGRITVDGVTATEKGQKVRRGAVIKVDGVEVGPPP”, the “soluble fraction (log2)” value was -0.581.
With “HMDGQPQLLIKNGQLLVSTALKNGMSANDLMFRLRTEGITDIRYVKRAVLEQNGQLTITQVGDD” the figure was -0.622.
With “HMDGVTEYTVKSGDSFSAIINKHYNVNYDEKLMQAVAAYNNIEDMNKLQLGQIIKLPPKEQLNL” the figure was -0.0462; with “HMDGYVPAERIASEVGVSARTITREMHGLEMTLMPYGIALLRRTGAGFMLAGTAKALADLRKHMTEDADTQ”, 0.134.
With “HMDHAHWEEHEVKLLLTLAIQEKEKFNWNQFGLTREGWRNIYPHFPQYSRKQINNKFDFLKQKYRAWKDS” the figure was -1.8; with “HMDHAVINSEEVTIKDLSEKIGVSAAEIIKALFTEGIIKTINDKIEYEYAQYVAGMFGVELTLKL”, 0.357; with “HMDIANEQEQIFITAMRNDDFNPILELKMKGYQPSKNVLKSLQPDVSSTTFIAAAKIFQMEGVL”, -1.
As for “HMDIASNQIQGIKDSVGGDENYSKMVAWALESLPAEEVKAFNDLTETANAPAIKMAVQGLYSQYNNAM”, the “soluble fraction (log2)” value turned out to be 0.195.
For “HMDIDGVSENGRLILAALDKEALDFDTLAAETGIQESRLRTELTLLEIRKLIMKLPGQRYRLI”, the “soluble fraction (log2)” value is -2.39.
For “HMDIDNDIIENILVMGVTKAIAINLSNEFERHRIIANIEYAKEKSKNSEIKNISAFTVEAIRQDYANS” the value was -1.34.
